From patent US20140087995A1 (published 2014) come the findings set out here.

Numbered stars: 1 amine (or outer) side, 2 acyl side, 3 side chain; on linkers, the order of the positions; unused ones are H or OH. Bridge positions count the residues as written; N and C are the ends. Side chains are listed from the residue outwards. Ends that are not written are not given here. * marks the point of attachment. C20 diacid = O=C(O)CCCCCCCCCCCCCCCCCCC(=O)*; γGlu = O=C(O)[C@H](CCC(=O)[*:2])N[*:1]

To fix the notation:
T1: human calcitonin receptor (human, UniProt P30988 25-474)
T1 sequence (looked up): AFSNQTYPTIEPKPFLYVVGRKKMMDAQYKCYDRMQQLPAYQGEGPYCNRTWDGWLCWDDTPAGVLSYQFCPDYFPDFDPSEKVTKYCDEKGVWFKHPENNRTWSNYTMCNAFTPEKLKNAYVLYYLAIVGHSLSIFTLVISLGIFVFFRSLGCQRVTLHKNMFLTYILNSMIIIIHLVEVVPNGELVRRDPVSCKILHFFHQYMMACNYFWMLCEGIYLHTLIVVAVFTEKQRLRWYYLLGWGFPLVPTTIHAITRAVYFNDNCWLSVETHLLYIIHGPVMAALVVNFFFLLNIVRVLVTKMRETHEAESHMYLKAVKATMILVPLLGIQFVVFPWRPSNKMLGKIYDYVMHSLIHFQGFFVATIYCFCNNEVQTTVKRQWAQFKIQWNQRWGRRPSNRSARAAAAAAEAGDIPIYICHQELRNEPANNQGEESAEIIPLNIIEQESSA

B1: N^ε1-[(4S)-4-carboxy-4-(19-carboxynonadecanoylamino)butanoyl]-[Arg17,Pro21,Pro27,Arg34]-h-amylin (peptide)
peptide: K([γGlu-C20 diacid])CNTATCATQRLANFLRHSSPNFGAIPSSTNVGRNTY-NH2
modifications: disulfide 2-7; N-terminus assumed
SMILES: CC[C@H](C)[C@H](NC(=O)[C@H](C)NC(=O)CNC(=O)[C@H](Cc1ccccc1)NC(=O)[C@H](CC(N)=O)NC(=O)[C@@H]1CCCN1C(=O)[C@H](CO)NC(=O)[C@H](CO)NC(=O)[C@H](Cc1c[nH]cn1)NC(=O)[C@H](CCCNC(=N)N)NC(=O)[C@H](CC(C)C)NC(=O)[C@H](Cc1ccccc1)NC(=O)[C@H](CC(N)=O)NC(=O)[C@H](C)NC(=O)[C@H](CC(C)C)NC(=O)[C@H](CCCNC(=N)N)NC(=O)[C@H](CCC(N)=O)NC(=O)[C@@H](NC(=O)[C@H](C)NC(=O)[C@@H]1CSSC[C@H](NC(=O)[C@@H](N)CCCCNC(=O)CC[C@H](NC(=O)CCCCCCCCCCCCCCCCCCC(=O)O)C(=O)O)C(=O)N[C@@H](CC(N)=O)C(=O)N[C@@H]([C@@H](C)O)C(=O)N[C@@H](C)C(=O)N[C@@H]([C@@H](C)O)C(=O)N1)[C@@H](C)O)C(=O)N1CCC[C@H]1C(=O)N[C@@H](CO)C(=O)N[C@@H](CO)C(=O)N[C@H](C(=O)N[C@@H](CC(N)=O)C(=O)N[C@H](C(=O)NCC(=O)N[C@@H](CCCNC(=N)N)C(=O)N[C@@H](CC(N)=O)C(=O)N[C@H](C(=O)N[C@@H](Cc1ccc(O)cc1)C(N)=O)[C@@H](C)O)C(C)C)[C@@H](C)O
notes: also called compound 79
B2: N^ε1-[(4S)-4-carboxy-4-(19-carboxynonadecanoylamino)butanoyl]-[Arg17,Pro21,Pro27,His35]-h-amylin (peptide)
peptide: K([γGlu-C20 diacid])CNTATCATQRLANFLRHSSPNFGAIPSSTNVGSHTY-NH2
modifications: disulfide 2-7; N-terminus assumed
SMILES: CC[C@H](C)[C@H](NC(=O)[C@H](C)NC(=O)CNC(=O)[C@H](Cc1ccccc1)NC(=O)[C@H](CC(N)=O)NC(=O)[C@@H]1CCCN1C(=O)[C@H](CO)NC(=O)[C@H](CO)NC(=O)[C@H](Cc1c[nH]cn1)NC(=O)[C@H](CCCNC(=N)N)NC(=O)[C@H](CC(C)C)NC(=O)[C@H](Cc1ccccc1)NC(=O)[C@H](CC(N)=O)NC(=O)[C@H](C)NC(=O)[C@H](CC(C)C)NC(=O)[C@H](CCCNC(=N)N)NC(=O)[C@H](CCC(N)=O)NC(=O)[C@@H](NC(=O)[C@H](C)NC(=O)[C@@H]1CSSC[C@H](NC(=O)[C@@H](N)CCCCNC(=O)CC[C@H](NC(=O)CCCCCCCCCCCCCCCCCCC(=O)O)C(=O)O)C(=O)N[C@@H](CC(N)=O)C(=O)N[C@@H]([C@@H](C)O)C(=O)N[C@@H](C)C(=O)N[C@@H]([C@@H](C)O)C(=O)N1)[C@@H](C)O)C(=O)N1CCC[C@H]1C(=O)N[C@@H](CO)C(=O)N[C@@H](CO)C(=O)N[C@H](C(=O)N[C@@H](CC(N)=O)C(=O)N[C@H](C(=O)NCC(=O)N[C@@H](CO)C(=O)N[C@@H](Cc1c[nH]cn1)C(=O)N[C@H](C(=O)N[C@@H](Cc1ccc(O)cc1)C(N)=O)[C@@H](C)O)C(C)C)[C@@H](C)O
notes: also called compound 60
B3: N^ε1-[(4S)-4-carboxy-4-(19-carboxynonadecanoylamino)butanoyl]-[His14,Arg17,Pro21,Pro27,His34]-h-amylin (peptide)
peptide: K([γGlu-C20 diacid])CNTATCATQRLAHFLRHSSPNFGAIPSSTNVGHNTY-NH2
modifications: disulfide 2-7; N-terminus assumed
SMILES: CC[C@H](C)[C@H](NC(=O)[C@H](C)NC(=O)CNC(=O)[C@H](Cc1ccccc1)NC(=O)[C@H](CC(N)=O)NC(=O)[C@@H]1CCCN1C(=O)[C@H](CO)NC(=O)[C@H](CO)NC(=O)[C@H](Cc1c[nH]cn1)NC(=O)[C@H](CCCNC(=N)N)NC(=O)[C@H](CC(C)C)NC(=O)[C@H](Cc1ccccc1)NC(=O)[C@H](Cc1c[nH]cn1)NC(=O)[C@H](C)NC(=O)[C@H](CC(C)C)NC(=O)[C@H](CCCNC(=N)N)NC(=O)[C@H](CCC(N)=O)NC(=O)[C@@H](NC(=O)[C@H](C)NC(=O)[C@@H]1CSSC[C@H](NC(=O)[C@@H](N)CCCCNC(=O)CC[C@H](NC(=O)CCCCCCCCCCCCCCCCCCC(=O)O)C(=O)O)C(=O)N[C@@H](CC(N)=O)C(=O)N[C@@H]([C@@H](C)O)C(=O)N[C@@H](C)C(=O)N[C@@H]([C@@H](C)O)C(=O)N1)[C@@H](C)O)C(=O)N1CCC[C@H]1C(=O)N[C@@H](CO)C(=O)N[C@@H](CO)C(=O)N[C@H](C(=O)N[C@@H](CC(N)=O)C(=O)N[C@H](C(=O)NCC(=O)N[C@@H](Cc1c[nH]cn1)C(=O)N[C@@H](CC(N)=O)C(=O)N[C@H](C(=O)N[C@@H](Cc1ccc(O)cc1)C(N)=O)[C@@H](C)O)C(C)C)[C@@H](C)O
notes: also called compound 81
B4: N^ε1-[(4S)-4-carboxy-4-(19-carboxynonadecanoylamino)butanoyl]-[Arg17,Pro21,Pro27,His34]-h-amylin (peptide)
peptide: K([γGlu-C20 diacid])CNTATCATQRLANFLRHSSPNFGAIPSSTNVGHNTY-NH2
modifications: disulfide 2-7; N-terminus assumed
SMILES: CC[C@H](C)[C@H](NC(=O)[C@H](C)NC(=O)CNC(=O)[C@H](Cc1ccccc1)NC(=O)[C@H](CC(N)=O)NC(=O)[C@@H]1CCCN1C(=O)[C@H](CO)NC(=O)[C@H](CO)NC(=O)[C@H](Cc1c[nH]cn1)NC(=O)[C@H](CCCNC(=N)N)NC(=O)[C@H](CC(C)C)NC(=O)[C@H](Cc1ccccc1)NC(=O)[C@H](CC(N)=O)NC(=O)[C@H](C)NC(=O)[C@H](CC(C)C)NC(=O)[C@H](CCCNC(=N)N)NC(=O)[C@H](CCC(N)=O)NC(=O)[C@@H](NC(=O)[C@H](C)NC(=O)[C@@H]1CSSC[C@H](NC(=O)[C@@H](N)CCCCNC(=O)CC[C@H](NC(=O)CCCCCCCCCCCCCCCCCCC(=O)O)C(=O)O)C(=O)N[C@@H](CC(N)=O)C(=O)N[C@@H]([C@@H](C)O)C(=O)N[C@@H](C)C(=O)N[C@@H]([C@@H](C)O)C(=O)N1)[C@@H](C)O)C(=O)N1CCC[C@H]1C(=O)N[C@@H](CO)C(=O)N[C@@H](CO)C(=O)N[C@H](C(=O)N[C@@H](CC(N)=O)C(=O)N[C@H](C(=O)NCC(=O)N[C@@H](Cc1c[nH]cn1)C(=O)N[C@@H](CC(N)=O)C(=O)N[C@H](C(=O)N[C@@H](Cc1ccc(O)cc1)C(N)=O)[C@@H](C)O)C(C)C)[C@@H](C)O
notes: also called compound 77
B5: N^ε1-[(4S)-4-carboxy-4-(19-carboxynonadecanoylamino)butanoyl]-[His14,Arg17,Pro21,Pro27,Arg34]-h-amylin (peptide)
peptide: K([γGlu-C20 diacid])CNTATCATQRLAHFLRHSSPNFGAIPSSTNVGRNTY-NH2
modifications: disulfide 2-7; N-terminus assumed
SMILES: CC[C@H](C)[C@H](NC(=O)[C@H](C)NC(=O)CNC(=O)[C@H](Cc1ccccc1)NC(=O)[C@H](CC(N)=O)NC(=O)[C@@H]1CCCN1C(=O)[C@H](CO)NC(=O)[C@H](CO)NC(=O)[C@H](Cc1c[nH]cn1)NC(=O)[C@H](CCCNC(=N)N)NC(=O)[C@H](CC(C)C)NC(=O)[C@H](Cc1ccccc1)NC(=O)[C@H](Cc1c[nH]cn1)NC(=O)[C@H](C)NC(=O)[C@H](CC(C)C)NC(=O)[C@H](CCCNC(=N)N)NC(=O)[C@H](CCC(N)=O)NC(=O)[C@@H](NC(=O)[C@H](C)NC(=O)[C@@H]1CSSC[C@H](NC(=O)[C@@H](N)CCCCNC(=O)CC[C@H](NC(=O)CCCCCCCCCCCCCCCCCCC(=O)O)C(=O)O)C(=O)N[C@@H](CC(N)=O)C(=O)N[C@@H]([C@@H](C)O)C(=O)N[C@@H](C)C(=O)N[C@@H]([C@@H](C)O)C(=O)N1)[C@@H](C)O)C(=O)N1CCC[C@H]1C(=O)N[C@@H](CO)C(=O)N[C@@H](CO)C(=O)N[C@H](C(=O)N[C@@H](CC(N)=O)C(=O)N[C@H](C(=O)NCC(=O)N[C@@H](CCCNC(=N)N)C(=O)N[C@@H](CC(N)=O)C(=O)N[C@H](C(=O)N[C@@H](Cc1ccc(O)cc1)C(N)=O)[C@@H](C)O)C(C)C)[C@@H](C)O
notes: also called compound 85
B6: N^ε1-[(4S)-4-carboxy-4-(19-carboxynonadecanoylamino)butanoyl]-[His14,Arg17,Pro21,Pro27,His35]-h-amylin (peptide)
peptide: K([γGlu-C20 diacid])CNTATCATQRLAHFLRHSSPNFGAIPSSTNVGSHTY-NH2
modifications: disulfide 2-7; N-terminus assumed
SMILES: CC[C@H](C)[C@H](NC(=O)[C@H](C)NC(=O)CNC(=O)[C@H](Cc1ccccc1)NC(=O)[C@H](CC(N)=O)NC(=O)[C@@H]1CCCN1C(=O)[C@H](CO)NC(=O)[C@H](CO)NC(=O)[C@H](Cc1c[nH]cn1)NC(=O)[C@H](CCCNC(=N)N)NC(=O)[C@H](CC(C)C)NC(=O)[C@H](Cc1ccccc1)NC(=O)[C@H](Cc1c[nH]cn1)NC(=O)[C@H](C)NC(=O)[C@H](CC(C)C)NC(=O)[C@H](CCCNC(=N)N)NC(=O)[C@H](CCC(N)=O)NC(=O)[C@@H](NC(=O)[C@H](C)NC(=O)[C@@H]1CSSC[C@H](NC(=O)[C@@H](N)CCCCNC(=O)CC[C@H](NC(=O)CCCCCCCCCCCCCCCCCCC(=O)O)C(=O)O)C(=O)N[C@@H](CC(N)=O)C(=O)N[C@@H]([C@@H](C)O)C(=O)N[C@@H](C)C(=O)N[C@@H]([C@@H](C)O)C(=O)N1)[C@@H](C)O)C(=O)N1CCC[C@H]1C(=O)N[C@@H](CO)C(=O)N[C@@H](CO)C(=O)N[C@H](C(=O)N[C@@H](CC(N)=O)C(=O)N[C@H](C(=O)NCC(=O)N[C@@H](CO)C(=O)N[C@@H](Cc1c[nH]cn1)C(=O)N[C@H](C(=O)N[C@@H](Cc1ccc(O)cc1)C(N)=O)[C@@H](C)O)C(C)C)[C@@H](C)O
notes: also called compound 66

The test deals with T1, human calcitonin receptor. In words: cell-based or functional assay.
On to B1, for which the “hCTR funct. EC50” value is 3.94 nM. With B2, the “hCTR funct. EC50” value is 5.36 nM. In the case of B3 it was 1.73 nM; in that of B4, 5.4 nM. Take B5: the “hCTR funct. EC50” value came to 3.88 nM.

Turning to B6, the “hCTR funct. EC50” value amounted to 0.542 nM.
